Assay results as given in article PMC6488296.

B1: MBP-PIF6_(1-100)-His6 [A. thaliana] / PhyB_(1-651)-Avitag-His6 [modified: phycocyanobilin chromophore; biotin on the Avitag; phycocyanobilin chromophore; biotin on the Avitag] [A. thaliana] (parent)
chain 1: MMFLPTDYCCRLSDQEYMELVFENGQILAKGQRSNVSLHNQRTKSIMDLYEAEYNEDFMKSIIHGGGGAITNLGDTQVVPQSHVAAAHETNMLESNKHVD
chain 2: MVSGVGGSGGGRGGGRGGEEEPSSSHTPNNRRGGEQAQSSGTKSLRPRSNTESMSKAIQQYTVDARLHAVFEQSGESGKSFDYSQSLKTTTYGSSVPEQQITAYLSRIQRGGYIQPFGCMIAVDESSFRIIGYSENAREMLGIMPQSVPTLEKPEILAMGTDVRSLFTSSSSILLERAFVAREITLLNPVWIHSKNTGKPFYAILHRIDVGVVIDLEPARTEDPALSIAGAVQSQKLAVRAISQLQALPGGDIKLLCDTVVESVRDLTGYDRVMVYKFHEDEHGEVVAESKRDDLEPYIGLHYPATDIPQASRFLFKQNRVRMIVDCNATPVLVVQDDRLTQSMCLVGSTLRAPHGCHSQYMANMGSIASLAMAVIINGNEDDGSNVASGRSSMRLWGLVVCHHTSSRCIPFPLRYACEFLMQAFGLQLNMELQLALQMSEKRVLRTQTLLCDMLLRDSPAGIVTQSPSIMDLVKCDGAAFLYHGKYYPLGVAPSEVQIKDVVEWLLANHADSTGLSTDSLGDAGYPGAAALGDAVCGMAVAYITKRDFLFWFRSHTAKEIKWGGAKHHPEDKDDGQRMHPRSSFQAFLEVVKSRSQPWETAEMDAIHSLQLILRDSFKESEAAMNSKVVDGVVQPCRDMAGEQGIDELGA

Variants of: B1
Assay: size exclusion chromatography (gel filtration, Superdex 200 10/300 GL, A671 nm)
Conditions: with PhyB_(1-651)-Avitag-His6 [modified: phycocyanobilin chromophore, PhyB illuminated with 660 nm light, PhyB:MBP-PIF 2:1 molar ratio, 60 min at room temperature, parent: 56, read off a plot
For chain 1 MMFLPTDYSSRLSDQEYMELVFENGQILAKGQRSNVSLHNQRTKSIMDLYEAEYNEDFMKSIIHGGGGAITNLGDTQVVPQSHVAAAHETNMLESNKHVD [chain 1 C9S C10S], the response (% PhyB-PIF complex) was 64. chain 1 MMFLPTDYSSRLSDQEYMELVFENGQILAKGQRSQVSLHNQRTKSIMDLYEAEYNEDFMKSIIHGGGGAITNLGDTQVVPQSHVAAAHETNMLESNKHVD [chain 1 C9S C10S N35Q] was tested, and the response (% PhyB-PIF complex) was 54. Work on chain 1 MMFLPTDYCCRLSDQEYMELVFENGQILAKGQRSQVSLHNQRTKSIMDLYEAEYNEDFMKSIIHGGGGAITNLGDTQVVPQSHVAAAHETNMLESNKHVD [chain 1 N35Q] yielded a response (% PhyB-PIF complex) of 52. chain 1 MMFLPTDYCCRLSDQEYMELVFENGQILAKGQRSNVALHNQRTKSIMDLYEAEYNEDFMKSIIHGGGGAITNLGDTQVVPQSHVAAAHETNMLESNKHVD [chain 1 S37A] gave a response (% PhyB-PIF complex) of 57.
